Measured values published in patent US20140255405A1 (published 2014).

Assays:
[1] = molecular target: T1, Human C1q (Calbiochem, 204876) (human, UniProt P02745 23-245; P02746 28-253; P02747 29-245); test: ELISA on coated human C1q; antibody preincubated with equimolar IL6 or without IL6; anti-human Fc HRP detection
T1 construct: Bought human C1q coated on ELISA plates; also called complement C1q; complement component C1q
Description: (§1) Determination of immune complex binding to complement C1q was performed using ELISA. Human C1q (Calbiochem, 204876) was coated onto maxisorp ELISA plates (NUNC, Denmark) at a concentration of 16 microgram/ml in a buffer containing 10 mM Tris HCl, pH 8 for 1 h and washed twice with 1× phosphate buffered saline supplemented with 0.1% Tween-20 (Merck KGaA, Germany, 8.17072.1000) (PBST). Plates were blocked with 2% skimmed milk powder (Roth, Germany T145.3) in PBST for 30 min and again washed twice with PBST. The prepared plates were then incubated with a preformed complex of antibody and IL6, at an equimolar IL6 and antibody binding site concentration of 11 nM, or with 11 nM antibody incubated without IL6, for 30 min.

[2] = molecular target: T2, human IL-6 (human, UniProt P05231 30-212); test: cell-based or functional assay
[3] = molecular target: T1, Human C1q (Calbiochem, 204876); test: ELISA on coated human C1q; preformed complex of antibody and IL6, 11 nM binding sites; anti-human Fc HRP detection
Description: as §1

[4] = molecular target: T2, human IL-6; test: inferred from IL6-dependent signal in C1q ELISA; antibody preincubated with equimolar IL6 at 11 nM
Description: as §1

T1 sequence (P02745 23-245 limits assumed, chain 1 of 3): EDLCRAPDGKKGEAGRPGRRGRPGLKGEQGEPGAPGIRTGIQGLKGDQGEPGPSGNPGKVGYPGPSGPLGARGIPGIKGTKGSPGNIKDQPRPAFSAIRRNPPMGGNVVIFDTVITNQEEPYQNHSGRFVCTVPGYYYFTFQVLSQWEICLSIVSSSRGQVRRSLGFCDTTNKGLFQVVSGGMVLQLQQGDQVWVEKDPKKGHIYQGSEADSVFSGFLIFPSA
T1 sequence (P02746 28-253 limits assumed, chain 2 of 3): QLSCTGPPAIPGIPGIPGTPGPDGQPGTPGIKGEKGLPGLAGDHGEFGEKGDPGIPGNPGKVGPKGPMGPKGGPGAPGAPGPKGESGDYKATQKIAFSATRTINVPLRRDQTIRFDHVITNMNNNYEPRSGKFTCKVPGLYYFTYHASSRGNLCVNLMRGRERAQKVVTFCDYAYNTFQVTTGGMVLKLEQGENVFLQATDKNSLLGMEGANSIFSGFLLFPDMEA
T1 sequence (P02747 29-245 limits assumed, chain 3 of 3): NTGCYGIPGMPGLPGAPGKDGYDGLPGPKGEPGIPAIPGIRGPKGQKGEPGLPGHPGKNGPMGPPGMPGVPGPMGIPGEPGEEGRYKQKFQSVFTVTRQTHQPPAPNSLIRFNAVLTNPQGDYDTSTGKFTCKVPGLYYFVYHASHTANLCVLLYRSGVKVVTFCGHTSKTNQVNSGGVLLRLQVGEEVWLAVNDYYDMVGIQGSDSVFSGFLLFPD

B1: DVD-D5 (antibody)
heavy: not shown
light: DTQMTQSPSSLSASVGDRVTITCRASQSISSYLAWYQQKPGKAPKLLIYAASSLYSGVPSRFSGSGSGTDFTLTISSLQPEDFATYYCQQYSSLPYTFGQGTKLEIKSPAPNLLGGPAIQMTQSPSSLSASVGDRVTITCQASQSINNELSWYQQKPGKAPKLLIYRASTLASGVPSRFSGSGSGTDFTLTISSLQPDDFATYYCQQGYSLRNIDNAFGGGTKVEIKRTVAAPSVFIFPPSDEQLKSGTASVVCLLNNFYPREAKVQWKVDNALQSGNSQESVTEQDSKDSTYSLSSTLTLSKADYEKHKVYACEVTHQGLSSPVTKSFNRGEC
notes: Monospecific control: dual variable domain human IgG1 like DVD-45 but with the Mab4 VL replaced by a germline-like dummy VL
[1]
  binding result: no binding (tested: 11 nM)

B2: Mab4 (antibody, human IgG1, kappa)
heavy: not shown
light: DIVLTQSPASLAVSLGQRATISCRASESVGNFGISFMNWFQQKPGQPPKLLIYTASNQGSGVPARFSGSGSGTDFSLNIHPMEEDDSAMYFCQQSKEIPWTFGGGTKVEIKRTVAAPSVFIFPPSDEQLKSGTASVVCLLNNFYPREAKVQWKVDNALQSGNSQESVTEQDSKDSTYSLSSTLTLSKADYEKHKVYACEVTHQGLSSPVTKSFNRGEC
[1]
  binding result: no binding (tested: 11 nM)
[2]
  IC50 on 7TD1 cells (pM): 2.6 pM
  IC50 on B9 cells (pM): 8.4 pM

B3: Mab4-5L5H (bispecific antibody, human IgG1, kappa)
heavy: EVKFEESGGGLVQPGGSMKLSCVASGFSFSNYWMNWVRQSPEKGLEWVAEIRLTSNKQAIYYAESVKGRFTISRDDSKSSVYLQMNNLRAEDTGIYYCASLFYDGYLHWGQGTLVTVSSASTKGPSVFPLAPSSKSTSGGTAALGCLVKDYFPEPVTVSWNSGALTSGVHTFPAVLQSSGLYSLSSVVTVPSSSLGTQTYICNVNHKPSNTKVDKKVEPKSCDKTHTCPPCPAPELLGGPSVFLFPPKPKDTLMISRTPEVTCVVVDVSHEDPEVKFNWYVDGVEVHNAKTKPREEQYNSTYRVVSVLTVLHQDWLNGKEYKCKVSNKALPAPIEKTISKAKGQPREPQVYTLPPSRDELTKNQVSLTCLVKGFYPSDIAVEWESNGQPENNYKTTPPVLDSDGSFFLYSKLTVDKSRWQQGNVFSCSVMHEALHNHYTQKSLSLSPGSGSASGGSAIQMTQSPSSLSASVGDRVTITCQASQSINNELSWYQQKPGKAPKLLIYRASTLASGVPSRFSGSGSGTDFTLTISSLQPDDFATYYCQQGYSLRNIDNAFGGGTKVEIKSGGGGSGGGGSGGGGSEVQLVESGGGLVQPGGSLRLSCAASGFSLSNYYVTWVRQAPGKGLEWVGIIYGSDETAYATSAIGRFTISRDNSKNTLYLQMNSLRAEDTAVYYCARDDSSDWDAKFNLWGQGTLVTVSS
light: DIVLTQSPASLAVSLGQRATISCRASESVGNFGISFMNWFQQKPGQPPKLLIYTASNQGSGVPARFSGSGSGTDFSLNIHPMEEDDSAMYFCQQSKEIPWTFGGGTKVEIKRTVAAPSVFIFPPSDEQLKSGTASVVCLLNNFYPREAKVQWKVDNALQSGNSQESVTEQDSKDSTYSLSSTLTLSKADYEKHKVYACEVTHQGLSSPVTKSFNRGEC
notes: Bispecific, tetravalent human IgG1-scFv fusion: Mab5 scFv (VL-VH) fused to the C-terminus of CH3 of Mab4
[3]
  binding result: binds
[4]
  binding result: binds

B4: DVD-45 (bispecific antibody, human IgG1, kappa)
heavy: not shown
light: DIVLTQSPASLAVSLGQRATISCRASESVGNFGISFMNWFQQKPGQPPKLLIYTASNQGSGVPARFSGSGSGTDFSLNIHPMEEDDSAMYFCQQSKEIPWTFGGGTKLEIKSPAPNLLGGPAIQMTQSPSSLSASVGDRVTITCQASQSINNELSWYQQKPGKAPKLLIYRASTLASGVPSRFSGSGSGTDFTLTISSLQPDDFATYYCQQGYSLRNIDNAFGGGTKVEIKRTVAAPSVFIFPPSDEQLKSGTASVVCLLNNFYPREAKVQWKVDNALQSGNSQESVTEQDSKDSTYSLSSTLTLSKADYEKHKVYACEVTHQGLSSPVTKSFNRGEC
notes: Bispecific, tetravalent human IgG1 dual variable domain IgG: variable domains of Mab4 appended to the N-termini of the variable domains of Mab5
[3]
  binding result: binds
[2]
  IC50 on 7TD1 cells (pM): 1.3 pM
  IC50 on B9 cells (pM): 2.9 pM

B5: Mab5 (antibody, human IgG1, kappa, V domains shown)
VH: EVQLVESGGGLVQPGGSLRLSCAASGFSLSNYYVTWVRQAPGKGLEWVGIIYGSDETAYATSAIGRFTISRDNSKNTLYLQMNSLRAEDTAVYYCARDDSSDWDAKFNLWGQGTLVTVSS
VL: AIQMTQSPSSLSASVGDRVTITCQASQSINNELSWYQQKPGKAPKLLIYRASTLASGVPSRFSGSGSGTDFTLTISSLQPDDFATYYCQQGYSLRNIDNAFGGGTKVEIKR
[2]
  IC50 on 7TD1 cells (pM): 19.9 pM
  IC50 on B9 cells (pM): 26.1 pM
